Laboratory results as given in patent publication US20050192282A1, “Chemokine inhibiting piperazine derivatives and their use to treat multiple myeloma” (Schering Aktiengesellschaft, priority 2004, published 2005).
“Also recorded” adds a separate entry of the source.

T1: Human CCR1 (Homo sapiens, UniProt P32246)
T1 sequence (P32246 1-355): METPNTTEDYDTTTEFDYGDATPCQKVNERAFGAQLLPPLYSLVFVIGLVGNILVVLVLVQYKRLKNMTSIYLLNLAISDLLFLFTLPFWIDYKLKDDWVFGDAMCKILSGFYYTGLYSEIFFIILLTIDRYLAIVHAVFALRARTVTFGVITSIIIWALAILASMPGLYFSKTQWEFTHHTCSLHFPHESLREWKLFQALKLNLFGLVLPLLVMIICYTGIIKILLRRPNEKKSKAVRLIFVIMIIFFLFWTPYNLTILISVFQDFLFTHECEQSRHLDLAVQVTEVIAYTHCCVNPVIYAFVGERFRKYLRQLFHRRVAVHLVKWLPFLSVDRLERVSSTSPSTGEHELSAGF

B1: MIP-1α: human CC chemokine, ligand for CCR1 and CCR5; recombinant form used as stimulus (protein, UniProt P10147 24-92, looked up)
C-C motif chemokine 3: SLAADTPTACCFSYTSRQIPQNFIADYFETSSQCSKPGVIFLTKRSRQVCADPSEEWVQKYVSDLELSA
B2: MIP-1β: human chemokine binding CCR1 with low affinity (protein, UniProt P13236 24-92, looked up)
C-C motif chemokine 4: APMGSDPPTACCFSYTARKLPRNFVVDYYETSSLCSQPAVVFQTKRSKQVCADPSESWVQEYVYDLELN

Key:
Human CCR1 = target: T1, Human CCR1; details: cited from earlier work
[1] = test system: β1 integrin mRNA expression in MM.1S human Myeloma cells; test: RT-PCR analysis of β1 integrin mRNA expression in MM.1S myeloma cells cocultured with ST2 stromal cells; format: cell-based; details: MM.1S cocultured with ST2; treated with 1 ng/ml of rhMIP-1a, 12 hours

Row | Molecule | ability to signal through human CCR1 (Human CCR1) | β1 integrin mRNA expression levels [1]
1 | MCP-1: human chemokine binding CCR1 with low affinity | neither ligand is able to signal | –
2 | B1 | – | significantly increased; also recorded: significantly enhanced
3 | B2 | neither ligand is able to signal | –
